Biological target: recombinant importin α1 (construct not stated for this experiment) (Homo sapiens (Human), UniProt P52292)
Test: ELISA

B1: IFN-γ (recombinant) (protein)
chain: QDPYVKEAENLKKYFNAGHSDVADNGTLFLGILKNWKEESDRKIMQSQIVSFYFKLFKNFKDDQSIQKSVETIKEDMNVKFFNSNKKKRDDFEKLTNYSVTDLNVQRKAIHELIQVMAELSPAAKTGKRKRSQMLFRG
Question: Does B1 bind?
Answer: Result: no binding

— article PMC4757827 (2016)
